Key:
His-OCT2 DBD (HTRF) = target: T1, His-OCT2 DBD (HTRF) (UniProt P09086-3 175-345); test: HTRF; 0-80 nM OCT2; Buffer not given (EMSA as in cited ref. 32; HTRF and ALPHA in similar conditions; 1 h incubation for HTRF); settings: protein: recombinant; label: 5' biotin, streptavidin Eu3+ cryptate
T1 sequence: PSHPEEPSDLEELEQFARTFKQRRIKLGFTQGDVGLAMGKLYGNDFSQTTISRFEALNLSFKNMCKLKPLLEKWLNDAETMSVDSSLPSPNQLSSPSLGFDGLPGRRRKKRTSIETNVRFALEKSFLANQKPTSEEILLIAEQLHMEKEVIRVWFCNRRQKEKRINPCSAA

EBNA1 DBD;OCT2 DBD [1] = target: T2, EBNA1 DBD;OCT2 DBD (Epstein-Barr virus;human?, UniProt P03211;P09086-3 459-607;175-345, |); test: HTRF; 15 nM His-EBNA1, 2.5-40 nM unlabeled OCT2; OCT2 stimulates EBNA1 binding; Buffer not given (EMSA as in cited ref. 32; HTRF and ALPHA in similar conditions; 1 h incubation for HTRF); settings: protein: recombinant;recombinant; tags: His;none (His-SUMO removed by SUMO protease); copies: 1;1; label: 5' biotin, streptavidin Eu3+ cryptate
EBNA1 DBD = EBNA1 DBD (Epstein-Barr virus, UniProt P03211 459-607); test: EMSA; no OCT2; low nanomolar affinity, two major species; Buffer not given (EMSA as in cited ref. 32; HTRF and ALPHA in similar conditions; 1 h incubation for HTRF); settings: protein: recombinant; tags: His; label: 32P
OCT2 DBD = target: T3, OCT2 DBD (UniProt P09086-3 175-345); test: EMSA; single major species at 40 nM OCT2, larger complex at higher concentration; Buffer not given (EMSA as in cited ref. 32; HTRF and ALPHA in similar conditions; 1 h incubation for HTRF); settings: protein: recombinant; tags: none (His-SUMO removed by SUMO protease); label: 32P
T3 sequence: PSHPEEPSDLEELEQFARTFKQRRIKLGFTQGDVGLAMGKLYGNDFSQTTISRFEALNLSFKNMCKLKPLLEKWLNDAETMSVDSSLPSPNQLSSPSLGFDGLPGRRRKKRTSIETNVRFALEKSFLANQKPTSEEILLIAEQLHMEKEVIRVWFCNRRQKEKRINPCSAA

EBNA1 DBD;OCT2 DBD [2] = target: T2, EBNA1 DBD;OCT2 DBD; test: EMSA; EBNA1 titration with 40 nM OCT2 or OCT2 titration with 15 nM EBNA1; saturated complex distinct from EBNA1 alone; Buffer not given (EMSA as in cited ref. 32; HTRF and ALPHA in similar conditions; 1 h incubation for HTRF); settings: protein: recombinant;recombinant; tags: His;none (His-SUMO removed by SUMO protease); copies: 1;1; label: 32P

T2 sequence (P03211 459-607, one chain of several): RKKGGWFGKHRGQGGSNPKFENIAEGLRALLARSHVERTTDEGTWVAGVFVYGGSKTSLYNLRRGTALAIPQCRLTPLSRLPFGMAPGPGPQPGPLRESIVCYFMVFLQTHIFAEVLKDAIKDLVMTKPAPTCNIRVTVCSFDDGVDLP
Sequence of EBNA1 DBD (P03211 459-607): as the sequence (P03211 459-607, one chain of several) above

B1: 2xFR (60 bp), biotin (dsDNA)
DNA 1: ATTAGGATAGCCTATGCTACCCAGATATAGATTAGGATAGCATATGCTACCCAGATATAG
DNA 2: CTATATCTGGGTAGCATATGCTATCCTAATCTATATCTGGGTAGCATAGGCTATCCTAAT
binding result (His-OCT2 DBD (HTRF)): binds
binding result (EBNA1 DBD;OCT2 DBD [1]): binds

B2: 2xFR (60-mer), 32P (dsDNA)
DNA 1: ATTAGGATAGCCTATGCTACCCAGATATAGATTAGGATAGCATATGCTACCCAGATATAG
DNA 2: CTATATCTGGGTAGCATATGCTATCCTAATCTATATCTGGGTAGCATAGGCTATCCTAAT
binding result (EBNA1 DBD): binds
binding result (OCT2 DBD): binds
binding result (EBNA1 DBD;OCT2 DBD [2]): binds

Reference: paper PMC4934754, “HCF1 and OCT2 Cooperate with EBNA1 To Enhance OriP-Dependent Transcription and Episome Maintenance of Latent Epstein-Barr Virus”
